Measurements published in patent publication US20080194482A1, “Selective Apac2 Receptor Peptide Agonists” (priority 2005, published 2008).
Square brackets hold non-standard residues; d marks the D form. Peptide text beside a SMILES is read from it. * marks the point of attachment. Orn = NCCC[C@H](N)C(=O)O; Hexanoyl = CCCCCC(=O)*; Aib = CC(C)(N)C(=O)O

T1: human PAC1 (Homo sapiens, UniProt P41586)
T1 construct: expressed in transfected cells
T1 sequence (P41586 21-468): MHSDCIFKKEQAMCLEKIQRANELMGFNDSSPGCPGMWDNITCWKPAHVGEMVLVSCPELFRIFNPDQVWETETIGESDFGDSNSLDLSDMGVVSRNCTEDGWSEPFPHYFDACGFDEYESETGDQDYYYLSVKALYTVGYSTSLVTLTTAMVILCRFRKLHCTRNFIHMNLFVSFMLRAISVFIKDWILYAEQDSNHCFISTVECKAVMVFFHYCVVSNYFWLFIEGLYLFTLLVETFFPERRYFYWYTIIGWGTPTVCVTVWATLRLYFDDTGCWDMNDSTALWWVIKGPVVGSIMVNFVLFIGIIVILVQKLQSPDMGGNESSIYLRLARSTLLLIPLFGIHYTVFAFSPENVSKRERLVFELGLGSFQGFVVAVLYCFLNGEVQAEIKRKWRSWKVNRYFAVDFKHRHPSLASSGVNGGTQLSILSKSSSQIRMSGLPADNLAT

T2: rat VPAC2 receptor (rat, UniProt P35000 23-437)
T2 sequence (looked up): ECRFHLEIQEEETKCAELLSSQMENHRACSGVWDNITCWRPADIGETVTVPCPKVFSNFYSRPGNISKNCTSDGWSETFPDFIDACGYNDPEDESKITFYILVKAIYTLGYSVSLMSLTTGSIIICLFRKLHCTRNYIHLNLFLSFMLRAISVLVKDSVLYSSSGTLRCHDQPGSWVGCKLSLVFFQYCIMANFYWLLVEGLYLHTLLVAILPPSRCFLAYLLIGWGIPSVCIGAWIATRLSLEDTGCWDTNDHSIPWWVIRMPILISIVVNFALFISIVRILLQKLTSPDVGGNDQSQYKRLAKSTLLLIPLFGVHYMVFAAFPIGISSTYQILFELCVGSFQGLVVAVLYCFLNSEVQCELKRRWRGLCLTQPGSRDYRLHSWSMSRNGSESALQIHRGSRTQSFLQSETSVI

T3: rat VPAC1 receptor (rat, UniProt P30083 31-459)
T3 sequence (looked up): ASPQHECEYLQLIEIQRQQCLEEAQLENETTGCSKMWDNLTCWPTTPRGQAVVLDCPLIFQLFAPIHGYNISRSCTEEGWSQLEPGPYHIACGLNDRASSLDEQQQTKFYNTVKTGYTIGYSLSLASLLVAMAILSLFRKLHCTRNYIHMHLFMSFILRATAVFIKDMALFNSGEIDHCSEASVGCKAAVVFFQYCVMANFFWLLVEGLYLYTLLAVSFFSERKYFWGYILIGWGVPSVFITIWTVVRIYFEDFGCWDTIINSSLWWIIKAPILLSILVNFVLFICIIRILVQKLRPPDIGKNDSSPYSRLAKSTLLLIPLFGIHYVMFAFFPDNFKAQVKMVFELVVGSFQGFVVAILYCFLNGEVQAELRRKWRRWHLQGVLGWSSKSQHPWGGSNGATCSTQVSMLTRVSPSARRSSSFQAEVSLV

T4: human VPAC2 receptor (human, UniProt P41587 24-438)
T4 sequence (looked up): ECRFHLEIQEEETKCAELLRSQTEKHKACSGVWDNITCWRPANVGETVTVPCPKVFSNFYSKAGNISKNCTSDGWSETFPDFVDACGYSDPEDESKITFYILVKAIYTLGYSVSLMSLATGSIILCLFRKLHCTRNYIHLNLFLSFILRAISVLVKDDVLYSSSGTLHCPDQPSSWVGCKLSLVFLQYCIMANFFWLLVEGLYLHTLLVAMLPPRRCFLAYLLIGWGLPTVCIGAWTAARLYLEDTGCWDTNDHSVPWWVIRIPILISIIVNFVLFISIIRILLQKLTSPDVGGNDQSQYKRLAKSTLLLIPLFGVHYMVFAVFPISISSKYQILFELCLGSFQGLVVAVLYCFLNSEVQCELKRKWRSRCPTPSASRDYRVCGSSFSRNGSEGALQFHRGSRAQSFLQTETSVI


Experiments:
human PAC1 = biological target: T1, human PAC1; experiment: Filter binding assay, 125I-labeled PACAP-27 tracer, PAC1 membranes; details: read-out: Human PAC1 Receptor Binding (IC50; nM)
rat VPAC2 receptor = biological target: T2, rat VPAC2 receptor; experiment: cell-based or functional assay
rat VPAC1 receptor = biological target: T3, rat VPAC1 receptor; experiment: cell-based or functional assay
human VPAC2 receptor = biological target: T4, human VPAC2 receptor; experiment: cell-based or functional assay

Molecule | IC50 (human PAC1) [nM] | Rat VPAC2 Receptor: DiscoveRx (EC50; nM), cAMP generation (rat VPAC2 receptor) [nM] | Rat VPAC1 Receptor: DiscoveRx (EC50; nM), cAMP generation (rat VPAC1 receptor) [nM] | Human VPAC2 Receptor: Alpha Screen (EC50; nM), cAMP generation (human VPAC2 receptor) [nM]
CCCCCC(=O)N[C@@H](Cc1c[nH]cn1)C(=O)N[C@@H](CO)C(=O)N[C@@H](CCC(=O)O)C(=O)N[C@@H](C)C(=O)N[C@H](C(=O)N[C@@H](Cc1ccccc1)C(=O)N[C@H](C(=O)N[C@@H](CCC(=O)O)C(=O)N[C@@H](CCC(N)=O)C(=O)N[C@@H](Cc1ccc(OC)cc1)C(=O)N[C@H](C(=O)N[C@@H](CCCN)C(=O)N[C@@H](CC(C)C)C(=O)N[C@@H](CCCNC(=N)N)C(=O)NC(C)(C)C(=O)N[C@@H](CCC(N)=O)C(=O)N[C@@H](CC(C)C)C(=O)N[C@@H](C)C(=O)N[C@@H](C)C(=O)NC(C)(C)C(=O)N[C@@H](CCCN)C(=O)N[C@@H](Cc1ccc(O)cc1)C(=O)N[C@@H](CC(C)C)C(=O)N[C@@H](CCC(N)=O)C(=O)N[C@@H](CO)C(=O)N[C@H](C(=O)N[C@@H](CCCN)C(=O)N[C@@H](CCCN)C(=O)NCC(=O)NCC(=O)N1CCC[C@H]1C(=O)N[C@@H](CO)C(=O)N[C@@H](CO)C(=O)NCC(=O)N[C@@H](C)C(=O)N1CCC[C@H]1C(=O)N1CCC[C@H]1C(=O)N1CCC[C@H]1C(=O)N[C@@H](CO)C(=O)O)[C@@H](C)CC)[C@@H](C)O)[C@@H](C)O)C(C)C [Agonist P393] (Hexanoyl-HSEAVFTEQY(Me)T[Orn]LR[Aib]QLAA[Aib][Orn]YLQSI[Orn][Orn]GGPSSGAPPPS-OH; C-terminus assumed) | > 25000 |  |  | 
CCCCCC(=O)N[C@@H](Cc1c[nH]cn1)C(=O)N[C@@H](CO)C(=O)N[C@@H](CC(=O)O)C(=O)N[C@@H](C)C(=O)N[C@H](C(=O)N[C@@H](Cc1ccccc1)C(=O)N[C@H](C(=O)N[C@@H](CC(=O)O)C(=O)N[C@@H](CC(N)=O)C(=O)N[C@@H](Cc1ccc(O)cc1)C(=O)N[C@H](C(=O)N[C@@H](CCCN)C(=O)N[C@@H](CC(C)C)C(=O)N[C@@H](CCCNC(=N)N)C(=O)NC(C)(C)C(=O)N[C@@H](CCC(N)=O)C(=O)N[C@H](C(=O)N[C@@H](C)C(=O)N[C@@H](C)C(=O)NC(C)(C)C(=O)N[C@@H](CCCCN)C(=O)N[C@@H](CO)C(=O)N[C@@H](CC(C)C)C(=O)N[C@@H](CCC(N)=O)C(=O)N[C@@H](CO)C(=O)N[C@H](C(=O)N[C@@H](CCCN)C(=O)N[C@@H](CC(N)=O)C(=O)N[C@@H](CCCN)C(=O)NCC(=O)NCC(=O)N1CCC[C@H]1C(=O)N[C@@H](CO)C(=O)N[C@@H](CO)C(=O)NCC(=O)N[C@@H](C)C(=O)N1CCC[C@H]1C(=O)N1CCC[C@H]1C(=O)N1CCC[C@H]1C(=O)N[C@@H](CO)C(=O)O)[C@@H](C)CC)C(C)C)[C@@H](C)O)[C@@H](C)O)C(C)C [Agonist P385] (Hexanoyl-HSDAVFTDNYT[Orn]LR[Aib]QVAA[Aib]KSLQSI[Orn]N[Orn]GGPSSGAPPPS-OH; C-terminus assumed) | > 25000 |  |  | 
CCCCCC(=O)N[C@@H](Cc1c[nH]cn1)C(=O)N[C@@H](CO)C(=O)N[C@@H](CC(=O)O)C(=O)N[C@@H](C)C(=O)N[C@H](C(=O)N[C@@H](Cc1ccccc1)C(=O)N[C@H](C(=O)N[C@@H](CC(=O)O)C(=O)N[C@@H](CO)C(=O)N[C@@H](Cc1ccc(O)cc1)C(=O)N[C@H](C(=O)N[C@@H](CCCN)C(=O)N[C@@H](CC(C)C)C(=O)N[C@@H](CCCNC(=N)N)C(=O)NC(C)(C)C(=O)N[C@@H](CCC(N)=O)C(=O)N[C@H](C(=O)N[C@@H](C)C(=O)N[C@@H](C)C(=O)NC(C)(C)C(=O)N[C@@H](CCCCN)C(=O)N[C@@H](Cc1ccc(O)cc1)C(=O)N[C@@H](CC(C)C)C(=O)N[C@@H](CCC(N)=O)C(=O)N[C@@H](CO)C(=O)N[C@H](C(=O)N[C@@H](CCCN)C(=O)N[C@@H](CC(N)=O)C(=O)N[C@@H](CCCN)C(=O)NCC(=O)NCC(=O)N1CCC[C@H]1C(=O)N[C@@H](CO)C(=O)N[C@@H](CO)C(=O)NCC(=O)N[C@@H](C)C(=O)N1CCC[C@H]1C(=O)N1CCC[C@H]1C(=O)N1CCC[C@H]1C(=O)N[C@@H](CO)C(=O)O)[C@@H](C)CC)C(C)C)[C@@H](C)O)[C@@H](C)O)C(C)C [Agonist P392] (Hexanoyl-HSDAVFTDSYT[Orn]LR[Aib]QVAA[Aib]KYLQSI[Orn]N[Orn]GGPSSGAPPPS-OH; C-terminus assumed) | > 25000 |  |  | 
CCCCCC(=O)N[C@@H](Cc1c[nH]cn1)C(=O)N[C@@H](CO)C(=O)N[C@@H](CC(=O)O)C(=O)N[C@@H](C)C(=O)N[C@H](C(=O)N[C@@H](Cc1ccccc1)C(=O)N[C@H](C(=O)N[C@@H](CC(=O)O)C(=O)N[C@@H](CC(N)=O)C(=O)N[C@@H](Cc1ccc(O)cc1)C(=O)N[C@H](C(=O)N[C@@H](CCCN)C(=O)N[C@@H](CC(C)C)C(=O)N[C@@H](CCCNC(=N)N)C(=O)NC(C)(C)C(=O)N[C@@H](CCC(N)=O)C(=O)N[C@@H](CO)C(=O)N[C@@H](C)C(=O)N[C@@H](C)C(=O)NC(C)(C)C(=O)N[C@@H](CCCCN)C(=O)N[C@@H](Cc1ccc(O)cc1)C(=O)N[C@@H](CC(C)C)C(=O)N[C@@H](CCC(N)=O)C(=O)N[C@@H](CO)C(=O)N[C@H](C(=O)N[C@@H](CCCN)C(=O)N[C@@H](CC(N)=O)C(=O)N[C@@H](CCCN)C(=O)NCC(=O)NCC(=O)N1CCC[C@H]1C(=O)N[C@@H](CO)C(=O)N[C@@H](CO)C(=O)NCC(=O)N[C@@H](C)C(=O)N1CCC[C@H]1C(=O)N1CCC[C@H]1C(=O)N1CCC[C@H]1C(=O)N[C@@H](CO)C(=O)O)[C@@H](C)CC)[C@@H](C)O)[C@@H](C)O)C(C)C [Agonist P389] (Hexanoyl-HSDAVFTDNYT[Orn]LR[Aib]QSAA[Aib]KYLQSI[Orn]N[Orn]GGPSSGAPPPS-OH; C-terminus assumed) | > 25000 |  |  | 
HSDAVFTDQYTXLRXQLAAXXYLQSIXXGGPSSGAPPPS (N-terminal hexanoyl (C6); Orn at 12, 21, 27 and 28; Aib at 15 and 20) [VPAC2 receptor peptide agonist P395] |  | 0.03 | 0.35 | 0.15
HSDAVFTDQYTXLRXQVAAXXYLQSIXXGGPSSGAPPPS (N-terminal hexanoyl (C6); Orn at 12, 21, 27 and 28; Aib at 15 and 20) [VPAC2 receptor peptide agonist P396] |  | 0.05 | 1.05 | 0.11
